A short description of this series: label from the status in PepcDB records.

Consider “MAVQRVQETQRHSSRVLVPQHAGQFHPVGLRHLSTGPGLHRRSVLRSARVLAKSSIDQPPGQHAQGAVMLRTPFSPRLEGWLLVALAVLLIGAGLGMRQPQNVDEERFLGVALEMLQNGSWFVPHRAAEIYADKPPLFMWTVAFFIWLTGSPNIALYLPGLLSAGTITAVLYDLGNRLWERRIGRYAALLFLATYQTYSILRTGQIDSFLCLWVALGFYGLVRHLLLGPAWGWFYFSCAAMGLGIISKGVGFVPALMLIPYAYAVRKNWHGVVRMPGQAARWALGLLVTLIACCLWLVPMVISVVRDGGPEGFAYLHEILLHQTANRYASAWDHREPFWYFLVNVIPQYWLPLVFALPWLIPAWRRQLSKQDGRVLVLLGWVLLVLLFFSLSSGKRKLYIFPALPGLVLVAAPLVPWLLRRWFRERVLARRIVPTIVVVWLALWFARGFIEPVVEGENPHKELMEQAAEVTHGADLVLVNWREGHWLYARQPMVHFGFAHALANERAASWLREHPGTFALVPGELLANCFLPEKAHPLGKTSRADWFLVDAQADNGVCRPERPPEVYRFAWKQNAQ”, for which the protein production entry was “failed”.

As to “MAVRQVTVGYSDGTHKTMPVRCDQTVLDAAEEHGVAIVNECQSGICGTCVATCTAGRYQMGRTEGLSDVERAARKILTCQTFVTSDCRIELQYPVDDNAALLVTGDGVVTAVELVSPSTAILRVDTSGMAGALRYRAGQFAQLQVPGTNVWRNYSYAHPADGRGECEFIIRLLPDGVMSNYLRDRAQPGDHIALRCSKGSFYLRPIVRPVILVAGGTGLSAILAMAQSLDADVAHPVYLLYGVERTEDLCKLDELTELRRRVGRLEVHVVVARPDPDWDGRTGLVTDLLDERMLASGDADVYLCGPVAMVDAARTWLDHNGFHRVGLYYEKFVASGAARRRTPARLDYAGVDIAEVCRRGRGTAVVIGGSIAGIAAAKMLSETFDRVIVLEKDGPHRRREGRPGAAQGWHLHHLLTAGQIELERIFPGIVDDMVREGAFKVDMAAQYRIRLGGTWKKPGTSDIEIVCAGRPLLEWCVRRRLDDEPRIDFRYESEVADLAFDRANNAIVGVAVDNGDADGGDGLQVVPAEFVVDASGKNTRVPEFLERLGVGAPEAEQDIINCFYSTMQHRVPPERRWQDKVMVICYAYRPFEDTYAAQYYTDSSRTILSTSLVAYNCYSPPRTAREFRAFADLMPSPVIGENIDGLEPASPIYNFRYPNMLRLRYEKKRNLPRALLAVGDAYTSADPVSGLGMSLALKEVREMQALLAKYGAGHRDLPRRYYRAIAKMADTAWFVIREQNLRFDWMKDVDKKRPFYFGVLTWYMDRVLELVHDDLDAYREFLAVVHLVKPPSALMRPRIASRVLGKWARTRLSGQKTLIARNYENHPIPAEPADQLVNA”, the protein production entry is “failed”.

In the case of “MAVVSHGGFRAAARALDVSQGGLTKSIAALEQEYGVDLIERSAKGVLLTPKGAAFVPLARAIVEEAERAEGWLRAQSGELSTSVSLGVSIEPSIRLAPAVLRDFRKALPDTSVHLTQGVALDLLGALRENRIELAVIRLPRNFDSSDLKVQRLYQSEPVIVGRAGHPGAGAASLRELVKYDWVVVGDTSRQGAMNDDSIWELFDREGLGRPRFAAVCNSLLSIVAMLMESDALARVPRALLDHSLARRNLIPIPVAEPPVPYWIATVHKASRRLSPEAQTLNAMLSSYARISGALSPERRPGEP”, the protein production result is listed as “failed”.

Regarding “MAWMFLLLAAAFEVTFAMGMKYAEGFTRPWPSLLTVVAAVGGIYFLTLAMRELPVSVAYPIWTAIGSLGTVLLGCLLLGESLTAVKLVSVGLIVAGVAGLK”, the protein production result is “failed”.

Consider “MAWRVGIAPLMTPSTPLWPGREPVYRSAALSSMEPGRPRGQQGTELGMPAGAPLRRGIGGGPGLDVRRRDLGAVAAAHQHAILGPAQVGDAHGEPDPDRGQRDGEGERGDVGEHAVAEIVRLGARLLVARQVERLGRAAHRLHGAVAPVDRRGGGGARPELEHPVLLIRAYGPLGFHGARITPKQRFLIAYVVNALQKIFSTRTCIALLHDLFAKARDSGRHAGVRMRGVALQNSHGTCRARSREHRLVISLCAPNAFCRRKAHGIIMEPGPPVATNNVRGSSTMTTNAREPRVHPVPILSLRPTQMTVGMREVKEKRKRWREHDSKKQADLLGKHMIPVVYGPDKRYYVIDHHHLGRALHDEGVKEVLVTVVGDLRMVEREAFWGVMDNKRWVYPYDSKGERRPFRDLPKSVADLRDDPFRSLAGELRRLGGFAKDTTPFSEFLWADYLRRKLSRKAVDANFDKALEKALSAAKSKDAIYLPGWCGPADDD”, for which the protein production result is listed as “failed”.

Take “MAWYEGAFFYQIFPDRFFRAGPPGRPAPAGPFEPWEAPPTLRGFKGGTLWGVAEKLPYLLDLGVEAIYLNPVFASTANHRYHTVDYFQVDPILGGNEALRHLLEVAHAHGVRVILDGVFNHTGRGFFAFQHLMENGEQSPYRDWYHVKGFPLKAYTAHPNYEAWWGNPELPKLKVETPAVREYLLAVAEHWIRFGVDGWRLDVPNEIPDPTFWREFRQRVKGANPEAYIVGEIWEEADFWLQGDMFDAVMNYPLARAVLGFVGGEALDRDLAAQTGLGRIEPLQALAFSHRLEDLFGRYRPEVVRAQMNLLTSHDTPRLLSLMRGSVERARLALALLFLLPGNPTVYYGEEVGMAGGKDPENRGGMVWEEARWQKDLRETVKRLARLRKEHPALRTAPYLRIYAQDGHLAFARGPYLAVVNASPHPFRQDFPLHGVFPRGGRAVDLLSGEVCTPQGGRLCGPVLPPFSLALWREA”: the protein production result is on record as “not failed”.

In the case of “MAYEERRSSILDSFSLSPLPYPVLLILAVASVFLLSSWYFSLEEAAESAEEQINFALLLIPLFLIVLVRWLSSMENPDALLGMFSSSRRTTYVSPGAGGDGGSSPWGVAALIVLLLVLLQYQSSFLEMWSG”, the protein production entry is listed as “failed”.

For “MAYLEVLRYLYHKRPMGKVKPGLERISMLLSKLGNPHLEYKTIHIGGTNGKGSVANMVSNILVSQGYRVGSYYSPHLSTFRERIRLNEEYISEEDVVKIYETMEPILNELDKEEIFSPSFFEVVTAMAFLYFAEKNVDIAVLEVGLGGRLDATNVVFPLCSTIVTVDRDHEKTLGYTIEQIAWEKSGIIKERVPLVTGERKREALKVMEDVARKKSSRMYVIDKDFSVKVKSLKLHENRFDYCGENTFEDLVLTMNGPHQIENAGVALKTLEATGLPLSEKAIREGLKNAKNLGRFEILEKNGKMYILDGAHNPHGAESLVRSLKLYFNGEPLSLVIGILDDKNREDILRKYTGIFERVIVTRVPSPRMKDMNSLVDMAKKFFKNVEVIEDPLEAIESTERATVVTGSLFLVGYVREFLTTGKINEEWKL”, the protein production entry is listed as “not failed”.

Consider “MAYREKDTKKWTAQWFETNVMGEKKKRRKRGFETKREALEFERSKKLSNERSMDMKLSDFIEIYFSDKQNDLKDRTIKNKRYMMQQHIVPYFGNQMMSEIKASQIIQWQNEIQKKGYSDSYLRMIQNQLTSLFTHAAKIYDLPVNPCKKVKRMGNSDSRSLNFWTLDEYKQFIQTMEPGTRYYLMFEMLFWTGCRIGELLAITKADINFEKNQLSINKTYYRTGMQDIITEPKTKQSFRTIEIPEFLKEEIKEFVDGHYGMPDTERLFPVVQEAVQHKMKRQIELAGVKKIRVHDIRHSHVAYLIEKGVEPLLIRDRLGHKDIRITLNTYGHLYPNQQRKIANLLDNENGNAVTGLGEERDEC”, for which the protein production entry is “failed”.

In the case of “MAYSLSPKKAGLPREVLKWLQSLDLSFFPKNVRRDFSNGYLVAEVFSWYFPRDFQMHSFDNGTSLAAKQSNWSQIEKFFVKQNISLVKEMIDGTIHCKPGAAELLVQEIYTILTNRSIQAIQRVEQGFTDKPYQDQLPMVARATASVSIKSNLSLTEVKAEPNIITNQRKVLAIIHRHLEQRKEERVQDPKRFNVKPTLGEQAVRLLAHQHEPNLQMNTSQAAC”, the protein production result is “failed”.

On to “MAYSPSLNDIKSILNKYTSKDYELKCENRYDGKLELWLKGVFEEIVKTPGTRYVTHKQLDEKLKNFVTKTEFKEFQTVVMESFAVQNQNIDAQGEQIKELQVEQKAQGKTLQLILEALQGINKRLDNLESK”, for which the protein production result is on record as “failed”.

For “MCAADHSREQVMRIGEVASRAGVSVRSVRYYEDQGLLASTRSAGGQRQYTEHEVERVQFLQRLYAAGLSSRTIAELLPCVDAPSEVHSDAALERMAQERDRLTEHIADLVRTRDALNALMTAAREYRDAQFA”, the protein production result is reported as “failed”.

Regarding “MCAPKRGRSQQFITTVIVCWRMASFSFRIEVRLSDAERRPTMRQQLFSTLTVLVALVGLSRAVVAQPMAIATLTPPELQELQRLVPRSAEDYYNLGLMHQGRGDLAAAIDAFSQAIKLNPSADYYFARGLAYYDQGDMQRAIADFTTALGDDPQFIAAYYNRGMAYLALQNYDAAIADFDAALARDPQFVAAYYSRGMAHFDRGNVELAQRDYERARALNPAMTAQYYDRAPRPLTGGP”, the protein production entry is “failed”.
